From patent US20140044730A1 (Regeneron, published 2014)
Residue numbers refer to the chain shown, from its start.

B1: 300N(v1) (antibody, IgG1, V domains shown)
VH: EMQLVESGGGLVQPGGSLRLSCAASGFTFSSHWMKWVRQAPGKGLEWVANINQDGSEKYYVDSVKGRFTISRDNAKNSLFLQMNSLRAEDTAVYYCARDIVLMVYDMDYYYYGMDVWGQGTTVTVSS
VL: not shown
B2: VK-L30H (antibody, V domains shown)
VH: B1 VH
VL: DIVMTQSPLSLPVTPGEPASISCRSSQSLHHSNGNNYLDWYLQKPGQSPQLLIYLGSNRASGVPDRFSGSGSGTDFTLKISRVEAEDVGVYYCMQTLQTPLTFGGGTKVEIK
notes: His variant of 300N
B3: Parental 300N (antibody, V domains shown)
VH: B1 VH
VL: not shown
notes: also called mAb 300N
B4: VH-M107H (antibody, V domains shown)
VH: B1 VH with M107H
VL: not shown
notes: His variant of 300N
B5: VH-Y112H (antibody, V domains shown)
VH: B1 VH with Y112H
VL: not shown
notes: His variant of 300N
B6: VH-V104H (antibody, V domains shown)
VH: B1 VH with V104H
VL: not shown
notes: His variant of 300N
B7: VH-D108H (antibody, V domains shown)
VH: B1 VH with D108H
VL: not shown
notes: His variant of 300N
B8: VH-V101H (antibody, V domains shown)
VH: B1 VH with V101H
VL: not shown
notes: His variant of 300N
B9: VK-T102H (antibody, V domains shown)
VH: B1 VH
VL: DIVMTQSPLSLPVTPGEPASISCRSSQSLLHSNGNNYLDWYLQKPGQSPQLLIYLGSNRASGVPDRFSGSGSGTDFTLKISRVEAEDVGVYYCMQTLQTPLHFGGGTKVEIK
notes: His variant of 300N
B10: VK-Y37H (antibody, V domains shown)
VH: B1 VH
VL: not shown
notes: His variant of 300N
B11: 316P(v2) (antibody, IgG4, V domains shown)
VH: EVQLVESGGGLVQPGGSLRLSCAASGFTFNNYAMNWVRQAPGKGLDWVSTISGSGGTTNYADSVKGRFIISRDSSKHTLYLQMNSLRAEDTAVYYCAKDSNWGNFDLWGRGTLVTVSS
VL: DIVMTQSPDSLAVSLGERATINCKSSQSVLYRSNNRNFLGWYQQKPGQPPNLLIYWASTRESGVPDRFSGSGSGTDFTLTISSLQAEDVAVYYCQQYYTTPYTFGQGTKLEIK
notes: also called 316(v2)

target: T1, human PCSK9 with a C-terminal myc-myc-hexahistidine tag (human, UniProt Q8NBP7 31-692, limits assumed); experiment: blocking ELISA pH 7.2, 500 pM hPCSK9-mmH vs coated hLDLR EGFA-hFc
T1 construct: also called hPCSK9-mmH; hPCSK9-mmh; not shown: C-terminal myc-myc-hexahistidine tag

IC50 | Binder
0.19 nM | B1
0.209 nM | B2

target: T1, human PCSK9 with a C-terminal …; experiment: blocking ELISA pH 7.2, 500 pM hPCSK9-mmH vs coated hLDLR EGFA-hFc, exp #2
From the text: (§1) The equilibrated sample solutions were then transferred to the LDLR EGFA-hFc coated plate prepared as described above.

IC50 | Binder
0.153 nM | B3
0.198 nM | B2

target: T2, recombinant cynomolgus monkey PCSK9 with a C-terminal myc-myc hexahistidine tag (cynomolgus monkey, UniProt A8T662 31-692 (Macaca nemestrina entry), limits assumed); experiment: cell-based or functional assay

IC50, LDL uptake in HepG2 cells, 50 nM MfPCSK9-mmH | Binder
10 nM | B3
15.9 nM | B4
21.2 nM | B5
19.9 nM | B2
15.8 nM | B6
12.7 nM | B7
17.2 nM | B8

target: T3, human PCSK9 with a C-terminal myc-myc hexahistidine tag and a D374Y mutation (human, UniProt Q8NBP7 31-692, limits assumed); experiment: cell-based or functional assay

IC50, LDL uptake in HepG2 cells, 2 nM hPCSK9-D374Y-mmH | Binder
1.2 nM | B3
4.6 nM | B4
4.7 nM | B5
2.1 nM | B2
4.7 nM | B6
2.6 nM | B7
4.7 nM | B8

target: T1, human PCSK9 with a C-terminal …; experiment: blocking ELISA pH 7.2, 500 pM hPCSK9-mmH vs coated hLDLR EGFA-hFc, exp #1
From the text: as §1

IC50 | Binder
0.226 nM | B3
0.704 nM | B4
0.506 nM | B5
0.166 nM | B2
0.331 nM | B6
0.334 nM | B7
0.857 nM | B8

target: T1, human PCSK9 with a C-terminal …; experiment: SPR (Biacore), 37 °C; antibody captured on anti-human Fc surface, hPCSK9-mmH injected (3.125-50 nM); association at pH 7.4, dissociation at pH 7.4
Method: (§2) All experiments were carried out at 37° C.
(§3) A Biacore CM4 sensor chip was derivatized with a Fab′2 polyclonal anti-human Fc antibody to capture human antibodies. […] Dissociation (kd) rate constants were determined by processing and fitting the data using Scrubber version 2.0 curve fitting software. Dissociative half-lives (t_{1/2}) were calculated from the dissociation rate constants as: t_{1/2} (min)=(In2/kd)/60.

t½ (dissociative half-life) | Binder
10.6 min | B2

target: T1, human PCSK9 with a C-terminal …; experiment: SPR 25C pH 5.75, mAb captured;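 further: biacore surface with anti-human Fc antibody capturing the antibodies, PCSK9 as analyte, one-to-one kinetic fit, KD as kd over ka, half-life derived from kd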

Kd | t½ | Binder
0.999 nM | 13 min | B3
1.21 nM | 16 min | B9
29.5 nM | 0.2 min | B4
55.7 nM | 0.04 min | B5
57.8 nM | 0.2 min | B2
47.6 nM | 0.4 min | B6
4420 nM | 0.2 min | B10
4.67 nM | 7 min | B7
10.5 nM | 3 min | B8

target: T1, human PCSK9 with a C-terminal …; experiment: SPR (Biacore), 37 °C; antibody captured on anti-human Fc surface, hPCSK9-mmH injected (3.125-50 nM); association at pH 7.4, dissociation at pH 5.75
Method: as §2, §3

t½ (dissociative half-life) | Binder
0.2 min | B2

target: T1, human PCSK9 with a C-terminal …; experiment: SPR (Biacore), 37 °C; antibody captured on anti-human Fc surface, hPCSK9-mmH injected (3.125-50 nM); association at pH 7.4, dissociation at pH 7.2
Method: as §3

t½ (dissociative half-life) | Binder
11.2 min | B2

target: T2, recombinant cynomolgus monkey PCSK9 …; experiment: cell-based or functional assay; remark: another data set of the same source

IC50, LDL uptake in HepG2 cells, 50 nM MfPCSK9-mmH | Binder
26.4 nM | B2

target: T3, human PCSK9 with a C-terminal myc-myc …; experiment: cell-based or functional assay; remark: another data set of the same source

IC50, LDL uptake in HepG2 cells, 2 nM hPCSK9-D374Y-mmH | Binder
3.3 nM | B2

target: T1, human PCSK9 with a C-terminal …; experiment: cell-based or functional assay

IC50, LDL uptake in HepG2 cells, 50 nM hPCSK9-mmH | Binder
9 nM | B2

target: T1, human PCSK9 with a C-terminal …; experiment: SPR 25C, mAb captured;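 further: biacore CM4 surface bearing anti-human Fc antibody capturing the mAbs, PCSK9 binding and release rates fitted with a one-to-one model, KD and half-life derived from those rates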
Method: (§4) A Biacore CM4 sensor chip was derivatized with a monoclonal mouse anti-human Fc antibody to capture human antibodies. The histidine substitution variant anti-PCSK9 antibodies were captured onto the anti-human Fc sensor surface from culture medium after transient expression in Chinese hamster ovary (CHO) cells. […] Kinetic association (kₐ) and dissociation (kd) rate constants were determined by processing and fitting the data to a 1:1 binding model using Scrubber 2.0 curve fitting software. Binding dissociation equilibrium constants (KD) and dissociative half-lives (t_{1/2}) were calculated from the kinetic rate constants as: KD (M)=kd/kₐ; and t_{1/2} (min)=(In2/(60*kd).

KD ratio pH 5.75/pH 7.2 | t½ ratio pH 5.75/pH 7.2 | Binder
1.15 | 0.26 | B3
1.17 | 0.33 | B9
4.02 | 0.02 | B4
4.52 | 0.01 | B5
25.5 | 0.01 | B2
8.51 | 0.04 | B6
72.3 | 0.54 | B10
1.73 | 0.24 | B7
1.43 | 0.14 | B8

target: T1, human PCSK9 with a C-terminal …; experiment: cell-based or functional assay; remark: another data set of the same source

IC50, LDL uptake in HepG2 cells, 100 nM hPCSK9-mmH | Binder
28 nM | B1
37 nM | B2

target: T1, human PCSK9 with a C-terminal …; experiment: blocking ELISA, hPCSK9-mmH vs coated hLDLR EGFA-hFc
Method: (§5) Briefly, hLDLR EGFA-hFc was coated at 2 μg/mL in PBS on a 96-well microtiter plate overnight at 4° C. followed by blocking with a solution of 0.5% (w/v) BSA in PBS.
(§6) The equilibrated sample solutions were then transferred to a LDLR EGFA-hFc coated plate.

IC50 ratio (pH 5.75/pH 7.2) | Binder
1.4 | B1
208 | B2

target: T1, human PCSK9 with a C-terminal …; experiment: SPR (Biacore), 37 °C; antibody captured on anti-human Fc surface, hPCSK9-mmH injected (3.125-50 nM); association at pH 7.4, dissociation at pH 6.0
Method: as §2, §3

t½ (dissociative half-life) | Binder
0.4 min | B2

target: T1, human PCSK9 with a C-terminal …; experiment: SPR 25C pH 6.0, purified mAb captured
Method: as §4
(§7) Also included in these experiments were several control/comparator antibodies. All measurements were taken at 25° C.

Kd | koff | kon | t½ | Binder
0.23 nM | 0.000149 s⁻¹ | 649000 M⁻¹ s⁻¹ | 77.5 min | B11
1.18 nM | 0.000304 s⁻¹ | 257000 M⁻¹ s⁻¹ | 38 min | B1
27 nM | 0.00845 s⁻¹ | 313000 M⁻¹ s⁻¹ | 1.4 min | B2

target: T1, human PCSK9 with a C-terminal …; experiment: SPR 25C, purified mAb captured
Method: as §4, §7

KD ratio pH 6.0/pH 7.4 | ka ratio pH 6.0/pH 7.4 | kd ratio pH 6.0/pH 7.4 | t½ ratio pH 6.0/pH 7.4 | Binder
0.41 | 1.25 | 0.51 | 1.96 | B11
2.33 | 1.85 | 4.33 | 0.23 | B1
14.8 | 1.94 | 28.8 | 0.03 | B2

target: T1, human PCSK9 with a C-terminal …; experiment: SPR 25C pH 7.4, purified mAb captured
Method: as §4
All measurements were taken at 25° C.

Kd | koff | kon | t½ | Binder
0.566 nM | 0.000292 s⁻¹ | 517000 M⁻¹ s⁻¹ | 39.5 min | B11
0.507 nM | 7.03e-05 s⁻¹ | 139000 M⁻¹ s⁻¹ | 164 min | B1
1.82 nM | 0.000293 s⁻¹ | 161000 M⁻¹ s⁻¹ | 39.4 min | B2

target: T1, human PCSK9 with a C-terminal …; experiment: blocking ELISA pH 5.75, 500 pM hPCSK9-mmH vs coated hLDLR EGFA-hFc
Method: as §5, §6

IC50 | Binder
0.266 nM | B1
43.4 nM | B2

target: T1, human PCSK9 with a C-terminal …; experiment: SPR 25C pH 7.2, mAb captured;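 further: biacore SPR, antibodies captured on anti-human Fc CM4 chip with PCSK9 flowed as analyte, rate constants from a one-to-one kinetic fit, KD and half-life derived from them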
Method: as §4

Kd | t½ | Binder
0.865 nM | 48 min | B3
1.03 nM | 49 min | B9
7.34 nM | 13 min | B4
12.3 nM | 5 min | B5
2.27 nM | 16 min | B2
5.6 nM | 11 min | B6
61.2 nM | 0 min | B10
2.69 nM | 28 min | B7
7.33 nM | 25 min | B8
